Patent publication US20120294796A1 (MacroGenics, published 2012)

T1: human B7-H3 on the surface of human cell lines (human, UniProt Q5ZPR3 29-534)
T1 construct: whole, on cells; also called B7-H3 present on the surface of cancer cells
T1 sequence (looked up): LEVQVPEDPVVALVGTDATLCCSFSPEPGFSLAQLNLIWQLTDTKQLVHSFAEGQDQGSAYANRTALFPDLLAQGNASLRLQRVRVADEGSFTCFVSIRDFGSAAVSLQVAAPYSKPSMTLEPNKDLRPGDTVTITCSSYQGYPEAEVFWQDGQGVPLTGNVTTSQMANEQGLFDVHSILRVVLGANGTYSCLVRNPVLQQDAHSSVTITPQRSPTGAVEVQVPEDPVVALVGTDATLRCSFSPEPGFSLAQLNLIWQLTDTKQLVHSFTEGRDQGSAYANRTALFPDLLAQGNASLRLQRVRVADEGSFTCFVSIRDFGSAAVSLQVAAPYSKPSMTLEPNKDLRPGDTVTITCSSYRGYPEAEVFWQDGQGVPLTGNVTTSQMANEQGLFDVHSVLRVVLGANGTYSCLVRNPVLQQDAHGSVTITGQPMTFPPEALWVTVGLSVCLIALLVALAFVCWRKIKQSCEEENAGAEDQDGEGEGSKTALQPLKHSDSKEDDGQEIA

B1: PRCA157 (antibody, IgG1, V domains shown)
VH: EVQQVESGGDLVKPGGSLKLSCAASGFTFSSYGMSWVRQTPDKRLEWVATINSGGSNTYYPDSLKGRFTISRDNAKNTLYLQMRSLKSEDTAMYYCARHDGGAMDYWGQGTSVTVSS
VL: DIQMTQSPASLSVSVGETVTITCRASESIYSYLAWYQQKQGKSPQLLVYNTKTLPEGVPSRFSGSGSGTQFSLKINSLQPEDFGRYYCQHHYGTPPWTFGGGTNLEIK
B2: BRCA84D (antibody, IgG1, V domains shown)
VH: DVQLVESGGGLVQPGGSRKLSCAASGFTFSSFGMHWVRQAPEKGLEWVAYISSDSSAIYYADTVKGRFTISRDNPKNTLFLQMTSLRSEDTAMYYCGRGRENIYYGSRLDYWGQGTTLTVSS
VL: DIAMTQSQKFMSTSVGDRVSVTCKASQNVDTNVAWYQQKPGQSPKALIYSASYRYSGVPDRFTGSGSGTDFTLTINNVQSEDLAEYFCQQYNNYPFTFGSGTKLEIK
B3: BRCA69D (antibody, IgG1, V domains shown)
VH: QVQLQQSGAELARPGASVKLSCKASGYTFTSYWMQWVKQRPGQGLEWIGTIYPGDGDTRYTQKFKGKATLTADKSSSTAYMQLSSLASEDSAVYYCARRGIPRLWYFDVWGAGTTVTVSS
VL: DIQMTQTTSSLSASLGDRVTISCRASQDISNYLNWYQQKPDGTVKLLIYYTSRLHSGVPSRFSGSGSGTDYSLTIDNLEQEDIATYFCQQGNTLPPTFGGGTKLEIK
notes: also called BRCA69A (probable misprint)

Key:
[1] = molecular target: T1, human B7-H3 on the surface of human …; assay: FACS, fluorescein-labeled mAb, LNCaP cells
[2] = molecular target: T1, human B7-H3 on the surface of human …; assay: FACS, fluorescein-labeled mAb, A549 cells
[3] = molecular target: T1, human B7-H3 on the surface of human …; assay: FACS, fluorescein-labeled mAb, A498 cells

| Binder | FACS MFI [1] [MFI] | FACS MFI [2] [MFI] | FACS MFI [3] [MFI] |
| --- | --- | --- | --- |
| B1 | 16.4 | 44.3 | 58.8 |
| B2 | 16.4 | 25 | 30.6 |
| B3 | 92.4 | 60.5 | 84.1 |
